Experimental data taken from patent publication US20190359687A1 (Bayer, published 2019).
Substitutions are numbered along the chain they refer to. Names and notes keep the numbering of the source.

T1: purified human glycophorin A protein (Sigma, cat # G5017) (human, UniProt P02724 20-150)
T1 construct: mature; also called Sigma hGPA; Sigma GPA
T1 sequence (looked up): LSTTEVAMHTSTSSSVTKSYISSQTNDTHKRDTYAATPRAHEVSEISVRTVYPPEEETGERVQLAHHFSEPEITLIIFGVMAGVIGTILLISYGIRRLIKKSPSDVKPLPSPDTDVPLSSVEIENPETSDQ

T2: human glycophorin A in the red blood cell membrane (human, UniProt P02724 20-150)
T2 construct: whole, on cells; used for intact RBC, isolated RBC membranes and transfected cells; the assay field tells which; also called GPA; hGPA
T2 sequence (looked up): T1 sequence (looked up)

T3: recombinant human GPA ectodomain (human, UniProt P02724 20-91)
T3 construct: also called recombinant hGPA ECD; recGPA
T3 sequence: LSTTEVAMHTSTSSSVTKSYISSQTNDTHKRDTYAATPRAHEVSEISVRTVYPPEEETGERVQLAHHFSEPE

B1: TPP-5316 (Fab, V domains shown)
VH: QVQLVQSGAEVKKPGASVKVSCKASGYTFTTYTIHWVRQAPGQGLEWIGYINPSSDYTRYNPKFKDRVTLTTDKSTSTAYMELRSLRSDDTAVYYCQTGTRDYWGQGTTVTVSS
VL: DIQLTQSPSFLSASVGDRVTITCSAASSVSYIYWFQQKPGKAPKLLIYSTSTLPSGVPSRFSGSGSGTEYTLTISSLQPEDFATYYCHQRNSFPFTFGQGTKLEIKR
notes: also called VH: (E1Q)
B2: TPP-5357 (Fab, V domains shown)
VH: B1 VH with Q1E
VL: DIQLTQSPSFLSASVGDRVTITCRAASSVSSYIYWFQQKPGKAPKLLIYSTSTLPSGVPSRFSGSGSGTEYTLTISSLQPEDFATYYCHQRNSFPFTFGQGTKLEIKR
notes: also called VL: (S24R)#
B3: TPP-5329 (Fab, V domains shown)
VH: B1 VH with Q1E, D66G
VL: B1 VL
notes: also called VH: (D66G)
B4: TPP-5354 (Fab, V domains shown)
VH: B1 VH with Q1E
VL: B1 VL with F93Y
notes: also called VL: (F93Y)
B5: TPP-5327 (Fab, V domains shown)
VH: B1 VH with Q1E, P62Q
VL: B1 VL
notes: also called VH: (P62Q)
B6: TPP-5352 (Fab, V domains shown)
VH: B1 VH with Q1E
VL: B1 VL with H88Q
notes: also called VL: (H88Q)
B7: TPP-5319 (Fab, V domains shown)
VH: B1 VH with Q1E, I34M
VL: B1 VL
notes: also called VH: (I34M)
B8: TPP-5342 (Fab, V domains shown)
VH: B1 VH with Q1E
VL: B1 VL with S27Q
notes: also called VL: (S27Q)
B9: TPP-5355 (Fab, V domains shown)
VH: B1 VH with Q1E
VL: B1 VL with F95Y
notes: also called VL: (F95Y)
B10: TPP-5317 (Fab, V domains shown)
VH: B1 VH with Q1E, T31S
VL: B1 VL
notes: also called VH: (T31S)
B11: TPP-5347 (Fab, V domains shown)
VH: B1 VH with Q1E
VL: B1 VL with F35Y
notes: also called VL: (F35Y)
B12: TPP-5326 (Fab, V domains shown)
VH: B1 VH with Q1E, N61A
VL: B1 VL
notes: also called VH: (N61A)
B13: TPP-5324 (Fab, V domains shown)
VH: B1 VH with Q1E, Y57S
VL: B1 VL
notes: also called VH: (Y57S)
B14: TPP-5330 (Fab, V domains shown)
VH: B1 VH with Q1E, L70M
VL: B1 VL
notes: also called VH: (L70M)
B15: TPP-5351 (Fab, V domains shown)
VH: B1 VH with Q1E
VL: B1 VL with Y70F
notes: also called VL: (Y70F)
B16: TPP-5331 (Fab, V domains shown)
VH: B1 VH with Q1E, T72R
VL: B1 VL
notes: also called VH: (T72R)
B17: TPP-5334 (Fab, V domains shown)
VH: B1 VH with Q1E, D89E
VL: B1 VL
notes: also called VH: (D89E)
B18: TPP-5345 (Fab, V domains shown)
VH: B1 VH with Q1E
VL: B1 VL with I32L
notes: also called VL: (I32L)
B19: TPP-5343 (Fab, V domains shown)
VH: B1 VH with Q1E
VL: B1 VL with S28G
notes: also called VL: (S28G)
B20: TPP-5349 (Fab, V domains shown)
VH: B1 VH with Q1E
VL: B1 VL with T50A
notes: also called VL: (T50A)
B21: TPP-5333 (Fab, V domains shown)
VH: B1 VH with Q1E, R84S
VL: B1 VL
notes: also called VH: (R84S)
B22: TPP-5323 (Fab, V domains shown)
VH: B1 VH with Q1E, D56G
VL: B1 VL
notes: also called VH: (D56G)
B23: TPP-5322 (Fab, V domains shown)
VH: B1 VH with Q1E, S55G
VL: B1 VL
notes: also called VH: (S55G)
B24: TPP-5344 (Fab, V domains shown)
VH: B1 VH with Q1E
VL: B1 VL with V29I
notes: also called VL: (V29I)
B25: TPP-5335 (Fab, V domains shown)
VH: B1 VH with Q1E, Q97A
VL: B1 VL
notes: also called VH: (Q97A)
B26: TPP-5332 (Fab, V domains shown)
VH: B1 VH with Q1E, K74T
VL: B1 VL
notes: also called VH: (K74T)
B27: TPP-5320 (Fab, V domains shown)
VH: B1 VH with Q1E, I48M
VL: B1 VL
notes: also called VH: (I48M)
B28: TPP-5328 (Fab, V domains shown)
VH: B1 VH with Q1E, K65Q
VL: B1 VL
notes: also called VH: (K65Q)
B29: TPP-5346 (Fab, V domains shown)
VH: B1 VH with Q1E
VL: B1 VL with Y33A
notes: also called VL: (Y33A)
B30: TPP-5353 (Fab, V domains shown)
VH: B1 VH with Q1E
VL: B1 VL with R90L
notes: also called VL: (R90L)

These binders were tested against T1, purified human glycophorin A protein … (assay: ELISA, native hGPA).
In the case of B1, the “binding by ELISA relative to parental” value is reported as 1.33.
For B2, the “binding by ELISA relative to parental” value was 0.23.
With B3 the “binding by ELISA relative to parental” value was 1.02.
With B4 the “binding by ELISA relative to parental” value was 0.33.
With B5 the “binding by ELISA relative to parental” value was 0.98.
With B6 the “binding by ELISA relative to parental” value was 0.36.
For B7, the “binding by ELISA relative to parental” value was 0.99.
B8 was tested, and the “binding by ELISA relative to parental” value was 0.91.
In the case of B9, the “binding by ELISA relative to parental” value is reported as 1.16.
In the case of B10, the “binding by ELISA relative to parental” value is reported as 1.36.
B11 was tested, and the “binding by ELISA relative to parental” value was 0.52.
In the case of B12, the “binding by ELISA relative to parental” value is reported as 0.56.
With B13 the “binding by ELISA relative to parental” value was 0.53.
B14 was tested, and the “binding by ELISA relative to parental” value was 1.2.
In the case of B15, the “binding by ELISA relative to parental” value is reported as 0.71.
With B16 the “binding by ELISA relative to parental” value was 1.11.
With B17 the “binding by ELISA relative to parental” value was 0.8.
With B18 the “binding by ELISA relative to parental” value was 0.6.
With B19 the “binding by ELISA relative to parental” value was 0.95.
In the case of B20, the “binding by ELISA relative to parental” value is reported as 0.12.
For B21, the “binding by ELISA relative to parental” value was 0.92.
For B22, the “binding by ELISA relative to parental” value was 1.49.
In the case of B23, the “binding by ELISA relative to parental” value is reported as 0.86.
With B24 the “binding by ELISA relative to parental” value was 0.84.
In the case of B25, the “binding by ELISA relative to parental” value is reported as 0.77.
B26 was tested, and the “binding by ELISA relative to parental” value was 0.83.
For B27, the “binding by ELISA relative to parental” value was 1.24.
With B28 the “binding by ELISA relative to parental” value was 0.89.

Each binder was assayed against T2, human glycophorin A in the red blood … (assay: ELISA, human RBC membranes;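 further: antibodies bound to isolated human red blood cell membrane ghosts coated on 96-well plates, tested 1.5 h at room temperature, bound antibody quantified with a detection antibody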).
Method: In order to evaluate binding of antibodies to GPA in the native context of the red blood cell membrane we made use of isolated red blood cell membranes, also called red blood cells ghosts. These membranes are prepared by first isolating red blood cells from citrated whole blood. Citrated whole blood is layered on to Ficol and centrifuged at low speed for 20 minutes to pellet the red blood cells. The supernatant containing plasma and other blood cells is discarded and the red blood cell pellet is subsequently washed 3 times in 10 cell volumes of phosphate buffered saline (PBS). A 10 ml pellet of purified red blood cells is resuspended in 30 ml of cold low osmorality 20 mM phosphate buffer (pH7.4) and incubated for 30 mins to break open the RBC. After Centrifugation at 10,000 rpm for 30 min at 5° C. the hemoglobin containing supernatant is discarded. To the membrane pellet another 30 ml of 20 mM phosphate buffer is added and the sample centrifuged again at 10,000 rpm for 30 min at 5° C. to pellet the membrane fraction. This wash and centrifugation step is repeated another 4 times. The red blood cell membranes are then resuspended in 20 mL of PBS to achieve an equivalent of approximately 2.5E9 cells/mL and stored frozen at −20° C. Binding of antibodies to RBC ghost can be measured by ELISA in which the RBC ghost suspension (5×10⁶ in 100 ul PBS) was added to each well of flat bottom 96-well ELISA microtiter plates (2HB, Immunolon) and the plates incubated overnight at 4° C. The plates were blocked with Starting blocking buffer (Thermo Fisher) for 2 hours at room temperature (RT). Antibodies or other test molecules were added to each well and incubated for 1.5 hours at RT. After 4 washes 100 ul of an appropriate detection antibody was added to each well and incubated for 1 hour at RT. After 4 washes the detection antibody was measured using appropriate detection reagents.
With B1 the “binding by ELISA relative to parental” value was 1.16.
In the case of B2, the “binding by ELISA relative to parental” value is reported as 0.37.
In the case of B3, the “binding by ELISA relative to parental” value is reported as 1.
In the case of B4, the “binding by ELISA relative to parental” value is reported as 0.35.
With B5 the “binding by ELISA relative to parental” value was 0.74.
B29 was tested, and the “binding by ELISA relative to parental” value was 0.42.
For B30, the “binding by ELISA relative to parental” value was 0.2.
In the case of B6, the “binding by ELISA relative to parental” value is reported as 0.34.
B7 was tested, and the “binding by ELISA relative to parental” value was 0.85.
In the case of B8, the “binding by ELISA relative to parental” value is reported as 0.75.
With B9 the “binding by ELISA relative to parental” value was 1.18.
For B10, the “binding by ELISA relative to parental” value was 0.68.
With B11 the “binding by ELISA relative to parental” value was 0.43.
In the case of B12, the “binding by ELISA relative to parental” value is reported as 0.45.
For B13, the “binding by ELISA relative to parental” value was 0.41.
With B14 the “binding by ELISA relative to parental” value was 0.91.
For B15, the “binding by ELISA relative to parental” value was 0.71.
B16 was tested, and the “binding by ELISA relative to parental” value was 0.96.
In the case of B17, the “binding by ELISA relative to parental” value is reported as 0.72.
With B18 the “binding by ELISA relative to parental” value was 0.43.
In the case of B19, the “binding by ELISA relative to parental” value is reported as 0.71.
B20 was tested, and the “binding by ELISA relative to parental” value was 0.27.
B21 was tested, and the “binding by ELISA relative to parental” value was 0.59.
B22 was tested, and the “binding by ELISA relative to parental” value was 1.72.
B23 was tested, and the “binding by ELISA relative to parental” value was 0.82.
B24 was tested, and the “binding by ELISA relative to parental” value was 0.6.
B25 was tested, and the “binding by ELISA relative to parental” value was 0.65.
With B26 the “binding by ELISA relative to parental” value was 0.58.
In the case of B27, the “binding by ELISA relative to parental” value is reported as 0.99.
In the case of B28, the “binding by ELISA relative to parental” value is reported as 0.61.

What follows are binders tested against T3, recombinant human GPA ectodomain (assay: ELISA, rec hGPA ectodomain).
In the case of B1, the “binding by ELISA relative to parental” value is reported as 1.29.
In the case of B2, the “binding by ELISA relative to parental” value is reported as 0.23.
With B3 the “binding by ELISA relative to parental” value was 1.12.
B4 was tested, and the “binding by ELISA relative to parental” value was 0.17.
With B5 the “binding by ELISA relative to parental” value was 0.99.
In the case of B29, the “binding by ELISA relative to parental” value is reported as 0.03.
In the case of B30, the “binding by ELISA relative to parental” value is reported as 0.04.
For B6, the “binding by ELISA relative to parental” value was 0.26.
With B7 the “binding by ELISA relative to parental” value was 1.08.
B8 was tested, and the “binding by ELISA relative to parental” value was 0.95.
In the case of B9, the “binding by ELISA relative to parental” value is reported as 1.35.
B10 was tested, and the “binding by ELISA relative to parental” value was 1.34.
With B11 the “binding by ELISA relative to parental” value was 0.35.
B12 was tested, and the “binding by ELISA relative to parental” value was 0.53.
In the case of B13, the “binding by ELISA relative to parental” value is reported as 0.34.
B14 was tested, and the “binding by ELISA relative to parental” value was 1.29.
B15 was tested, and the “binding by ELISA relative to parental” value was 0.78.
For B16, the “binding by ELISA relative to parental” value was 1.07.
In the case of B17, the “binding by ELISA relative to parental” value is reported as 0.89.
For B18, the “binding by ELISA relative to parental” value was 0.48.
In the case of B19, the “binding by ELISA relative to parental” value is reported as 0.97.
B21 was tested, and the “binding by ELISA relative to parental” value was 0.97.
In the case of B22, the “binding by ELISA relative to parental” value is reported as 1.64.
For B23, the “binding by ELISA relative to parental” value was 0.91.
B24 was tested, and the “binding by ELISA relative to parental” value was 0.77.
In the case of B25, the “binding by ELISA relative to parental” value is reported as 0.83.
B26 was tested, and the “binding by ELISA relative to parental” value was 0.87.
With B27 the “binding by ELISA relative to parental” value was 1.35.
B28 was tested, and the “binding by ELISA relative to parental” value was 0.91.
